In assay [1] the target is Gammanorm 165 mg/ml (Octapharma), diluted to 1 mg/ml in Equilibration buffer. The assay is described as follows: column breakthrough, ligand on agarose, residence time 2.4 min.
Assay [2] shares this target. Put plainly: column breakthrough, ligand on agarose, residence time 6.0 min.

The values that follow come from patent US20130245224A1.

Several values for one entry are separate records, joined by “and”; a condition that tells them apart may be missing. Equal values may be shown once.

In the case of “Regular Z2: ligand dimer containing two copies of protein Z (SEQ ID No. 3 but without the P57I substitutions) (designed binder)”, in assay [1], the Qb5 (dynamic binding capacity at 5% breakthrough) is 28.5 mg/ml resin and 29.9 mg/ml resin; the Qb10 (dynamic binding capacity at 10% breakthrough) was 31.4 mg/ml resin and 32.2 mg/ml resin; the Qb80 (dynamic binding capacity at 80% breakthrough) was 43.8 mg/ml resin and 46.1 mg/ml resin. In assay [2], the Qb5 (dynamic binding capacity at 5% breakthrough) was 38.1 mg/ml resin and 38.5 mg/ml resin; the Qb10 (dynamic binding capacity at 10% breakthrough) is 40.6 mg/ml resin and 40.4 mg/ml resin; the Qb80 (dynamic binding capacity at 80% breakthrough) is 46.7 mg/ml resin and 47.1 mg/ml resin.
